Data reported in patent US20140274766A1, “METHODS OF USING F-SPONDIN AS A BIOMARKER FOR CARTILAGE DEGENERATIVE CONDITIONS AND BONE DISEASES” (priority 2009, published 2014).

Legend:
embryonic mouse tibia = experiment: Embryonic mouse tibia organ culture ex vivo (growth, staining, histology)
Procedure: FIGS. 20A, 20B and 20C. F-spondin regulates bone growth and morphology in mouse tibial organ cultures. Longitudinal growth and histological analysis of embryonic mouse tibia after 7 days of culture ex vivo. Tibia were treated with recombinant F-spondin FS (1 mg/ml) or an anti-F-spondin, TSR-domain specific (R1) antibody. (A) Representative images of whole tibia stained with alcian blue (proteoglycans) and alizarin red (mineral). (B) Tibial growth was measured after 7 days of organ culture and expressed as percent of original length at day 0. Average growth for control cultures has been set to 100% (C) H&E stained sections of corresponding limbs after 7 days treatment. Arrows indicate hypertrophic chondrocytes in the […] growth plate.
All animal experiments were conducted according to the guidelines of the Institutional Animal Care and Use Committee (IACUC) of New York University. […] After 12 hours, tibiae were placed in 24-well Falcon plates and initial longitudinal length was measured using a stereomicroscope. […] (purchased from R&D Systems, Minneapolis, Minn. (Cat No AF3135). Media was changed every 24 hours beginning on day one, and tibial length was measured again at the end of one week. The results were expressed as percentage changes in length relative to day one. […]

chick chondrocytes = experiment: Alkaline phosphatase (AP) activity in RA-stimulated chick chondrocyte cultures; type: cell-based; settings: F-Spondin 1 ug/ml with RA, 3 days
Procedure: FIG. 16. Inhibition of F-spondin decreases AP activity in RA stimulated cultures. Chick chondrocytes were treated with RA at 100 nm for 5 days with and without F-spondin antibodies and AP activity assessed. Antibodies with specificities to the spondin domain (medium grey) and TSR domain (black) inhibited AP activity compared to ctrl (noAb) (light grey). Note the greater inhibitory effect of the TSR domain antibody. * p=<0.05 versus no ab ctrl.
FIG. 17. The pro-maturation effect of F-spondin is not inhibited following neutralization of TGF-β activity by coculture with Latency Associated Peptide (LAP). AP activity was determined in chick chondrocyte cultures by ELISA following RA stimulation for 3 days. Cultures were either ctrl (RA only) or RA with either F-Spondin (1 ug/ml) or LAP (10 or 100 ng/ml), or RA with F-Spondin (1 ug/ml) and LAP (10 or 100 ng/ml) in combination.
FIG. 18. Blocking αvβ3 integrin inhibits the promaturation effect of F-spondin. Chondocyte cultures were transfected as previously and stimulated with RA for 3 days in the presence of IgG control, or αvβ3 blocking antibodies prior to assay for AP activity. Inhibition of αvβ3 led to a ˜50% suppression of F-spondin-induced AP activity but had no effect on baseline AP activity (vector ctrl).
FIGS. 23A, 23B and 23C. F-spondin regulation of chondrocyte maturation requires the TSR domain. (A) Schematic representation of F-spondin protein domains and plasmid constructs encoding either full length (FS1) or TSR domain truncated (FS6) cDNAs. (B) Relative AP activity of FS or pcDNA3 control transfected cultures after 5 days treatment. (C) Relative AP activity following inhibition of F-spondin protein domains. Upper sternal chondrocytes were stimulated with 0, 10, 35 or 100 nM retinoic acid (RA) for 5 days in culture. […]
We next determined that the pro-maturation effect of F-spondin is not inhibited following neutralization of TGF-β activity by coculture with Latency Associated Peptide (LAP) (R&D Systems, Cat No 246-LP/CF). […] AP activity was determined in chick chondrocyte cultures by ELISA following RA stimulation for 3 days. […]

AP activity (chick chondrocytes): increase
B1: F-spondin: 110 kDa, secreted, heparin-binding extracellular matrix glycoprotein; used as recombinant protein (R&D systems) or transfected-cell supernatant (protein, UniProt Q9HCB6 29-807, looked up)
Spondin-1: FSDETLDKVPKSEGYCSRILRAQGTRREGYTEFSLRVEGDPDFYKPGTSYRVTLSAAPPSYFRGFTLIALRENREGDKEEDHAGTFQIIDEEETQFMSNCPVAVTESTPRRRTRIQVFWIAPPAGTGCVILKASIVQKRIIYFQDEGSLTKKLCEQDSTFDGVTDKPILDCCACGTAKYRLTFYGNWSEKTHPKDYPRRANHWSAIIGGSHSKNYVLWEYGGYASEGVKQVAELGSPVKMEEEIRQQSDEVLTVIKAKAQWPAWQPLNVRAAPSAEFSVDRTRHLMSFLTMMGPSPDWNVGLSAEDLCTKECGWVQKVVQDLIPWDAGTDSGVTYESPNKPTIPQEKIRPLTSLDHPQSPFYDPEGGSITQVARVVIERIARKGEQCNIVPDNVDDIVADLAPEEKDEDDTPETCIYSNWSPWSACSSSTCDKGKRMRQRMLKAQLDLSVPCPDTQDFQPCMGPGCSDEDGSTCTMSEWITWSPCSISCGMGMRSRERYVKQFPEDGSVCTLPTEETEKCTVNEECSPSSCLMTEWGEWDECSATCGMGMKKRHRMIKMNPADGSMCKAETSQAEKCMMPECHTIPCLLSPWSEWSDCSVTCGKGMRTRQRMLKSLAELGDCNEDLEQVEKCMLPECPIDCELTEWSQWSECNKSCGKGHVIRTRMIQMEPQFGGAPCPETVQRKKCRIRKCLRNPSIQKLRWREARESRRSEQLKEESEGEQFPGCRMRPWTAWSECTKLCGGGIQERYMTVKKRFKSSQFTSCKDKKEIRACNVHPC
alizarin red staining (embryonic mouse tibia; 7 days culture, compared to untreated limbs): slight increase
number of hypertrophic chondrocytes (H&E) (embryonic mouse tibia; growth plate cartilage adjacent to mineralized core): increased numbers
